Laboratory results: patent US20250276077A1 (IMMUNOME, published 2025)

Assays:
[1] = molecular target: T1, Human EphA2 (ephrin receptor A2) on cells (human, UniProt P29317 25-976); test: cell-based or functional assay
[2] = molecular target: T1, Human EphA2 (ephrin receptor A2) on …; test: cell-based or functional assay; remark: listed apart in the source
[3] = molecular target: T1, Human EphA2 (ephrin receptor A2) on …; test: cell-based or functional assay; remark: listed apart in the source
Human EphA2 [4] = molecular target: T2, Human EphA2 (human, UniProt P29317 24-976); test: IHC/IF on frozen human tumor tissue: PANC
T2 construct: Endogenous EphA2 in fresh frozen human tumor tissue sections, not a recombinant protein; also called ephrin receptor A2; hEphA2

Human EphA2 [5] = molecular target: T2, Human EphA2; test: IHC/IF on frozen human tumor tissue: NSCLC-SQ
Human EphA2 [6] = molecular target: T2, Human EphA2; test: IHC/IF on frozen human tumor tissue: UCEC-clear cell
Human EphA2 [7] = molecular target: T2, Human EphA2; test: IHC/IF on frozen human tumor tissue: CRC
Human EphA2 [8] = molecular target: T2, Human EphA2; test: IHC/IF on frozen human tumor tissue: GAC
Human EphA2 [9] = molecular target: T2, Human EphA2; test: IHC/IF on frozen human tumor tissue: HNC
Human EphA2 [10] = molecular target: T2, Human EphA2; test: IHC/IF on frozen human tumor tissue: UCEC-endometrioid
Human EphA2 [11] = molecular target: T2, Human EphA2; test: IHC/IF on frozen human tumor tissue: ER+ BRC
Human EphA2 [12] = molecular target: T2, Human EphA2; test: IHC/IF on frozen human tumor tissue: STS
Human EphA2 [13] = molecular target: T2, Human EphA2; test: IHC/IF on frozen human tumor tissue: RCC-papillary
Human EphA2 [14] = molecular target: T2, Human EphA2; test: IHC/IF on frozen human tumor tissue: PROC
Human EphA2 [15] = molecular target: T2, Human EphA2; test: IHC/IF on frozen human tumor tissue: URO
Human EphA2 [16] = molecular target: T2, Human EphA2; test: IHC/IF on frozen human tumor tissue: ESO
Human EphA2 [17] = molecular target: T2, Human EphA2; test: IHC/IF on frozen human tumor tissue: ANC
Human EphA2 [18] = molecular target: T2, Human EphA2; test: IHC/IF on frozen human tumor tissue: Her2+ BRC
Human EphA2 [19] = molecular target: T2, Human EphA2; test: IHC/IF on frozen human tumor tissue: OVA
Human EphA2 [20] = molecular target: T2, Human EphA2; test: IHC/IF on frozen human tumor tissue: TNBC
Human EphA2 [21] = molecular target: T2, Human EphA2; test: IHC/IF on frozen human tumor tissue: RCC-clear cell
Human EphA2 [22] = molecular target: T2, Human EphA2; test: IHC/IF on frozen human tumor tissue: MELA
Human EphA2 [23] = molecular target: T2, Human EphA2; test: IHC/IF on frozen human tumor tissue: NSCLC-Adeno
Human EphA2 [24] = molecular target: T2, Human EphA2; test: IHC/IF on frozen human tumor tissue: UCEC-papillary

Binder | IHC score (Human EphA2 [4]) | IHC score (Human EphA2 [5]) | IHC score (Human EphA2 [6]) | IHC score (Human EphA2 [7]) | IHC score (Human EphA2 [8]) | IHC score (Human EphA2 [9]) | IHC score (Human EphA2 [10]) | IHC score (Human EphA2 [11]) | IHC score (Human EphA2 [12]) | IHC score (Human EphA2 [13]) | IHC score (Human EphA2 [14]) | IHC score (Human EphA2 [15]) | IHC score (Human EphA2 [16]) | IHC score (Human EphA2 [17]) | IHC score (Human EphA2 [18]) | IHC score (Human EphA2 [19]) | IHC score (Human EphA2 [20]) | IHC score (Human EphA2 [21]) | IHC score (Human EphA2 [22]) | IHC score (Human EphA2 [23]) | other results
AB-010357 (antibody, mouse IgG2a, V domains shown) VH: QVQLQQWGAGLLKPSETLSLTCAVYGGSFSDYYWSWIRQPPGKGLEWIGEINHRGSINYNNYNPSLKSRVTISVDTSKNQFSLKLSSVTAADTAVYYCAKPLRPHCTNGVCYSGDAFDIWGQGTMVTVAS VL: SYVLTQPPSVSVAPGQTARITCGGNNIGSKNVHWYQQKPGQAPVLVVYDDSDRPSGIPEQFSGSNSGNTATLTISRVEAGDEADYYCQVWDSSSDHVVFGGGTKLTVL | – | – | – | – | – | – | – | – | – | – | – | – | – | – | – | – | – | – | – | – | ADCC EC50 (nM), parent, A549 [1]: 10.9 nM; ADCC - EC50 (nM), Trial 1, A549 [2]: 12.3 nM; ADCC - EC50 (nM), Trial 2, A549 [2]: 9.6 nM; ADCC EC50 [3]: 11.6 nM; ADCC Fold-improved (against AB-008873) [3]: 3 fold
AB-010363 (antibody, V domains shown) VH: QVQLQQWGAGLLKPSETLSLTCAVYGGSFSGYYWSWIRQPPGKGLEWIGEINHRGSINYNNYNPSLKSRVTISVDTSKNQFSLKLSSVTAADTAVYYCAKPLRPHCTNGVCYSGDAFDIWGQGTMVTVAS VL: SYVLTQPPSVSVAPGQTARITCGGNNIGSKNVHWYQQKPGQAPVLVVYDDSDRPSGIPERFSGSNSGNTATLTISRVEAGDEADYYCQVWDSSSDHVVFGGGTKLTVL | – | – | – | – | – | – | – | – | – | – | – | – | – | – | – | – | – | – | – | – | ADCC EC50 (nM), parent, A549 [1]: 4.65 nM; ADCC - EC50 (nM), Trial 1, A549 [2]: 5.1 nM; ADCC - EC50 (nM), Trial 2, A549 [2]: 4.2 nM; ADCC EC50 [3]: 9.5 nM; ADCC Fold-improved (against AB-008873) [3]: 3.66 fold
AB-010361 (antibody, mouse IgG2a, V domains shown) VH: QVQLQQWGAGLLKPSETLSLTCAVYGGSFSGYYWSWIRQPPGKGLEWIGEINHRGSINYNNYNPSLKSRVTISVDTSKNQFSLKLSSVTAADTAVYYCAKPLRPHCTNGVCYSGDAFDIWGQGTMVTVAS VL: SYVLTQPPSVSVAPGQTARITCGGNNIGSKNVHWYQQKPGQAPVLVVYDDSDRPSGIPEQFSGSNSGNTATLTISRVEAGDEADYYCQVWDSSSDHVVFGGGTKLTVL | – | – | – | – | – | – | – | – | – | – | – | – | – | – | – | – | – | – | – | – | ADCC EC50 (nM), parent, A549 [1]: 3.1 nM; ADCC - EC50 (nM), Trial 1, A549 [2]: 4 nM; ADCC - EC50 (nM), Trial 2, A549 [2]: 2.2 nM; ADCC EC50 [3]: 3.1 nM; ADCC Fold-improved (against AB-008873) [3]: 11.2 fold
AB-009812 (antibody, mouse IgG2a, V domains shown, Made on a mouse IgG2a framework) VH: QVQLQQWGAGLLKPSETLSLTCAVYGGSFSDYYWSWIRQPPGKGLEWIGEVNHSGSINYNNYNPSLKSRVTISVDPSKNQFSLKLTSVTAADTAVYYCAKPLRPHCTNGVCYSGDAFDIWGQGTMVTVAS VL: SYVLTQPPSVSVAPGQTARITCGGNNIGSKNVHWYQQKPGQAPVLVVYDDSDRPSGIPEQFSGSNSGNTATLTISRVEAGDEADYYCQVWDSSSDHLVFGGGTKLTVL | 1 | 1 | 1 | 1 | 2 | 2 | 1 | 1 | 2 | 1 | 1 | 1 | 2 | 2 | 2 | 2 | 1 | 1 | 2 | 2 | IHC score (Human EphA2 [24]): 2
AB-009813 (antibody, mouse IgG2a, V domains shown, Made on a mouse IgG2a framework) VH: QVQLQQWGAGLLKPSETLSLTCAVYGGSFSDYYWSWIRQPPGKGLEWIGEVNHAGSINYNNYNPSLKSRVTISVDPSKNQFSLKLTSVTAADTAVYYCAKPLRPHCTNGVCYSGDAFDIWGQGTMVTVAS VL: SYVLTQPPSVSVAPGQTARITCGGNNIGSKNVHWYQQKPGQAPVLVVYDDSDRPSGIPEQFSGSNSGNTATLTISRVEAGDEADYYCQVWDSSSDHLVFGGGTKLTVL | 1 | 1 | 2 | 1 | 2 | 2 | 1 | 1 | 2 | 1 | 1 | 1 | 2 | 2 | 1 | 2 | 1 | 1 | 2 | 2 | IHC score (Human EphA2 [24]): 2
AB-009816 (antibody, mouse IgG2a, V domains shown, Made on a mouse IgG2a framework) VH: QVQLQQWGAGLLKPSETLSLTCAVYGGSFSDYYWSWIRQPPGKGLEWIGEVNHRGSINYNNYNPSLKSRVTISVDASKNQFSLKLTSVTAADTAVYYCAKPLRPHCTNGVCYSGDAFDIWGQGTMVTVAS VL: SYVLTQPPSVSVAPGQTARITCGGNNIGSKNVHWYQQKPGQAPVLVVYDDSDRPSGIPEQFSGSNSGNTATLTISRVEAGDEADYYCQVWDSSSDHLVFGGGTKLTVL | 1 | 1 | 2 | 1 | 2 | 2 | 1 | 1 | 2 | 1 | 1 | 1 | 2 | 2 | 2 | 2 | 1 | 1 | 2 | 2 | IHC score (Human EphA2 [24]): 2
AB-009815 (antibody, mouse IgG2a, V domains shown, Made on a mouse IgG2a framework) VH: QVQLQQWGAGLLKPSETLSLTCAVYGGSFSDYYWSWIRQPPGKGLEWIGEVNHRGSINYNNYNPSLKSRVTISVDTSKNQFSLKLTSVTAADTAVYYCAKPLRPHCTNGVCYSGDAFDIWGQGTMVTVAS VL: SYVLTQPPSVSVAPGQTARITCGGNNIGSKNVHWYQQKPGQAPVLVVYDDSDRPSGIPEQFSGSNSGNTATLTISRVEAGDEADYYCQVWDSSSDHLVFGGGTKLTVL | 1 | 1 | 2 | 1 | 2 | 2 | 1 | 1 | 2 | 1 | 1 | 1 | 2 | 2 | 2 | 2 | 1 | 1 | 2 | 2 | IHC score (Human EphA2 [24]): 2
